# Results taken from patent publication US20240209334A1, “SMALL-MOLECULE-ACTIVATED GLYCAN MODIFYING ENZYMES AND USES THEREOF” (President and Fellows of Harvard College, priority 2022, published 2024).
# B1: C181_D174N: catalytically dead mutant (D174N) of OGA-intein(C181) (protein)
# chain: MEQKLISEEDLAIAMVQKESQATLEERESELSSNPAASAGASLEPPAAPAPGEDNPAGAGGAAVAGAAGGARRFLCGVVEGFYGRPWVMEQRKELFRRLQKWELNTYLYAPKDDYKHRMFWREMYSVEEAEQLMTLISAAREYEIEFIYAISPGLDITFSNPKEVSTLKRKLDQVSQFGCRSFALLFNDIDHNMCLAEGTRIFDPVTGTTHRIEDVVDGRKPIHVVAAAKDGTLLARPVVSWFDQGTRDVIGLRIAGGAIVWATPDHKVLTEYGWRAAGELRKGDRVAGPGGSGNSLALSLTADQMVSALLDAEPPILYSEYDPTSPFSEASMMGLLTNLADRELVHMINWAKRVPGFVDLTLHDQAHLLERAWLEILMIGLVWRSMEHPGKLLFAPNLLLDRNQGKCVEGMVEIFDMLLATSSRFRMMNLQGEEFVCLKSIILLNSGVYTFLSSTLKSLEEKDHIHRALDKITDTLIHLMAKAGLTLQQQHQRLAQLLLILSHIRHMSNKGMEHLYSMKYKNVVPLYDLLLEMLDAHRLHAGGSGASRVQAFADALDDKFLHDMLAEGLRYSVIREVLPTRRARTFDLEVEELHTLVAEGVVVHNCAADKEVFSSFAHAQVSITNEIYQYLGEPETFLFCPTEYCGTFCYPNVSQSPYLRTVGEKLLPGIEVLWTGPKVVSKEIPVESIEEVSKIIKRAPVIWDNIHANDYDQKRLFLGPYKGRSTELIPRLKGVLTNPNCEFEANYVAIHTLATWYKSNMNGVRKDVVMTDSEDSTVSIQIKLENEGSDEDIETDVLYSPQMALKLALTEWLQEFGVPHQYSSRGSGSGSGSGSGSGSGEKPLYTAEPVTLEDLQLLADLFYLPYEHGPKGAQMLREFQWLRANSSVVSVNCKGKDSEKIEEWRSRAAKFEEMCGLVMGMFTRLSNCANRTILYDMYSYVWDIKSIMSMVKSFVQWLGCRSHSSAQFLIGDQEPWAFRGGLAGEFQRLLPIDGANDLFFQPP
# B2: C181-NES: OGA-intein(C181) appended to a nuclear-export sequence (protein)
# chain: MEQKLISEEDLAIAMVQKESQATLEERESELSSNPAASAGASLEPPAAPAPGEDNPAGAGGAAVAGAAGGARRFLCGVVEGFYGRPWVMEQRKELFRRLQKWELNTYLYAPKDDYKHRMFWREMYSVEEAEQLMTLISAAREYEIEFIYAISPGLDITFSNPKEVSTLKRKLDQVSQFGCRSFALLFDDIDHNMCLAEGTRIFDPVTGTTHRIEDVVDGRKPIHVVAAAKDGTLLARPVVSWFDQGTRDVIGLRIAGGAIVWATPDHKVLTEYGWRAAGELRKGDRVAGPGGSGNSLALSLTADQMVSALLDAEPPILYSEYDPTSPFSEASMMGLLTNLADRELVHMINWAKRVPGFVDLTLHDQAHLLERAWLEILMIGLVWRSMEHPGKLLFAPNLLLDRNQGKCVEGMVEIFDMLLATSSRFRMMNLQGEEFVCLKSIILLNSGVYTFLSSTLKSLEEKDHIHRALDKITDTLIHLMAKAGLTLQQQHQRLAQLLLILSHIRHMSNKGMEHLYSMKYKNVVPLYDLLLEMLDAHRLHAGGSGASRVQAFADALDDKFLHDMLAEGLRYSVIREVLPTRRARTFDLEVEELHTLVAEGVVVHNCAADKEVFSSFAHAQVSITNEIYQYLGEPETFLFCPTEYCGTFCYPNVSQSPYLRTVGEKLLPGIEVLWTGPKVVSKEIPVESIEEVSKIIKRAPVIWDNIHANDYDQKRLFLGPYKGRSTELIPRLKGVLTNPNCEFEANYVAIHTLATWYKSNMNGVRKDVVMTDSEDSTVSIQIKLENEGSDEDIETDVLYSPQMALKLALTEWLQEFGVPHQYSSRGSGSGSGSGSGSGSGEKPLYTAEPVTLEDLQLLADLFYLPYEHGPKGAQMLREFQWLRANSSVVSVNCKGKDSEKIEEWRSRAAKFEEMCGLVMGMFTRLSNCANRTILYDMYSYVWDIKSIMSMVKSFVQWLGCRSHSSAQFLIGDQEPWAFRGGLAGEFQRLLPIDGANDLFFQPPLALKLAGLDIN
# B3: C181-NLS: OGA-intein(C181) appended to a nuclear-localization sequence (protein)
# chain: MEQKLISEEDLAIAMVQKESQATLEERESELSSNPAASAGASLEPPAAPAPGEDNPAGAGGAAVAGAAGGARRFLCGVVEGFYGRPWVMEQRKELFRRLQKWELNTYLYAPKDDYKHRMFWREMYSVEEAEQLMTLISAAREYEIEFIYAISPGLDITFSNPKEVSTLKRKLDQVSQFGCRSFALLFDDIDHNMCLAEGTRIFDPVTGTTHRIEDVVDGRKPIHVVAAAKDGTLLARPVVSWFDQGTRDVIGLRIAGGAIVWATPDHKVLTEYGWRAAGELRKGDRVAGPGGSGNSLALSLTADQMVSALLDAEPPILYSEYDPTSPFSEASMMGLLTNLADRELVHMINWAKRVPGFVDLTLHDQAHLLERAWLEILMIGLVWRSMEHPGKLLFAPNLLLDRNQGKCVEGMVEIFDMLLATSSRFRMMNLQGEEFVCLKSIILLNSGVYTFLSSTLKSLEEKDHIHRALDKITDTLIHLMAKAGLTLQQQHQRLAQLLLILSHIRHMSNKGMEHLYSMKYKNVVPLYDLLLEMLDAHRLHAGGSGASRVQAFADALDDKFLHDMLAEGLRYSVIREVLPTRRARTFDLEVEELHTLVAEGVVVHNCAADKEVFSSFAHAQVSITNEIYQYLGEPETFLFCPTEYCGTFCYPNVSQSPYLRTVGEKLLPGIEVLWTGPKVVSKEIPVESIEEVSKIIKRAPVIWDNIHANDYDQKRLFLGPYKGRSTELIPRLKGVLTNPNCEFEANYVAIHTLATWYKSNMNGVRKDVVMTDSEDSTVSIQIKLENEGSDEDIETDVLYSPQMALKLALTEWLQEFGVPHQYSSRGSGSGSGSGSGSGSGEKPLYTAEPVTLEDLQLLADLFYLPYEHGPKGAQMLREFQWLRANSSVVSVNCKGKDSEKIEEWRSRAAKFEEMCGLVMGMFTRLSNCANRTILYDMYSYVWDIKSIMSMVKSFVQWLGCRSHSSAQFLIGDQEPWAFRGGLAGEFQRLLPIDGANDLFFQPPKRPAATKKAGQAKKKK
# Key:
# [1] = test system: global O-GlcNAc level in MCF-7 cells; test: Immunoblot of global O-GlcNAc level and splicing in MCF-7 stable cell lines; type: cell-based, human; conditions: MCF-7 cells stably expressing the variant
# Excerpt: In addition to serving as an activator for intein splicing, 4-HT is also known as the active metabolite of tamoxifen, an FDA-approved drug for treating breast cancer patients. Breast cancer cells also have elevated OGT expression (39) and decreased levels of OGA (40, 41), resulting in elevated O-GlcNAcylation in the proteome. OGT is usually required for tumor growth and metastasis (39), and low OGA expression is correlated with poor survival in breast cancer patients (FIG. 13). The ER positive breast cancer-derived MCF-7 cell line is sensitive to tamoxifen and 4-HT, resulting in suppression of cell proliferation, yet drug resistance occurs after long-term treatment (42). Previous studies also show evidence that upregulation of O-GlcNAcylation protects MCF-7 cells from tamoxifen-induced cell death (43). To determine if reduction of O-GlcNAc sensitized MCF-7 cells to 4-HT treatment, it was assessed whether 4-HT induced inhibition of breast cancer cell proliferation and OGA-intein activation worked synergistically to accelerate cell death (FIG. 5A). […] Next, these two cell lines were treated with 4-HT at increasing concentrations, and cell viability was measured after 48 hours. […] Given that 4-HT promoted MCF-7 cell death through apoptosis (43), the apoptosis of these cells under 4-HT treatment was further analyzed through flow cytometry analyses following Annexin V and DAPI staining. […]
# [2] = test system: Nup62; test: Spatial deglycosylation of cytoplasmic Nup62 by OGA-intein(C181) variants in HEK293T cells; type: cell-based; conditions: cytoplasmic Nup62 co-expressed
# Experimental: (§1) Next, it was assessed whether these OGA-intein(C181) variants enable selective spatial deglycosylation in live cells. As O-GlcNAc affects the subcellular localization of many proteins (37), Nup62 was used as a model cytoplasmic substrate, which was previously primarily localized in the cytoplasm when transiently overexpressed in HEK293T cells independent of the O-GlcNAcylation state (13) (FIGS. 11A, 11B). Nup62 was co-expressed with three OGA-intein(C181) variants (C181-WT, C181-NLS, and C181-NES) in HEK293T cells, and Nup62 was enriched for O-GlcNAc measurement. […] Next, Nup62 was localized to the nucleus by attachment to an NLS tag (Nup62-NLS), and a similar coexpression and 4-HT-triggered activation was performed with OGA-intein(C181) variants. […] The fluorescent intensity of OGA-intein variants also show a strong correlation to the localization of Nup62, indicating the desired subcellular distribution (FIGS. 11A-C).
# (§2) Immunoprecipitation and Immunoblot assays. […]
# (§3) For immunoblotting analysis, proteins were transferred to a nitrocellulose membrane using an iBlot system (Invitrogen). […] Immunoblot images were captured using Azure Imager C600 and analyzed with Fiji ImageJ for converting all IR fluorescence western blot images to grayscale images.
# [3] = test system: Nup62-NLS; test: Spatial deglycosylation of nuclear Nup62-NLS by OGA-intein(C181) variants in HEK293T cells; type: cell-based; conditions: nuclear Nup62-NLS co-expressed
# Experimental: as §1, §2, §3
molecule,measurement,setting,value
B1,global O-GlcNAc level after adding 4-HT,[1],inactive form
B2,removal of O-GlcNAc from Nup62 after 4-HT-triggered activation,[2],removed O-GlcNAc from Nup62
B3,4-HT-induced deglycosylation of Nup62-NLS,[3],4-HT-induced deglycosylation
